Data published in the RNAGym collection of RNA variant scans (doi:10.7554/elife.80360).

B1: HDV Ribozyme (parent)
chain: GGCCGGCAUGGUCCCAGCCUCCUCGCUGGCGCCGGCUGGGCAACAUUCCGAGGGGACCGUCCCCUCGGUAAUGGCGAAUGGGACCCA

Variants of: B1
Assay: self-cleavage, relative activity (ratio to wild type); higher = more cleavage; co-transcriptional

Variant	self-cleavage
C13G C58A	0
C13G C49G	0.356
U12G U60A	0.68
U12C G40A	0.305
U12C G40U	0.0627
U12C A70U	0.378
C13U A43U	0.151
C13U A43C	0.0791
C13A C84G	0.237
C13G U72G	0.0923
U12A C22G	0.0405
C13G G25U	0.232
U12A C30U	0.0739
C13G A56G	0.0536
U12A G59C	0.573
C13A C15G	0.142
U12C C61A	0.511
U12G A71U	0.791
U12G G80A	0.906
C13G C33A	0.0978
U12C G54A	0.862
U12A C32U	0.0723
U12G C63U	0.755
U12G C63A	0.712

Variant	self-cleavage
U12G C63G	0.727
C13A C19U	0.119
C13A C19A	0.0302
C13A C19G	0.102
C13G U69A	0.0437
G11U G39U	0.0936
C13G C19U	0.0396
C13G C19A	0.0437
C13U A45U	0.198
C13A A43G	0.0831
U12C G25A	0.17
U12C G25C	0.0923
C13A G17C	0
C13A G17A	0.0639
C13A G74A	0.101
C13A G74C	0.0346
C13G G67A	0.138
U12G U72C	0
U12G U72G	0.128
C13U A70G	0.475
U12C C18A	0.0739
U12A U47A	0.302
U12G A43U	0.0639
U12G A43G	0.237

Variant	self-cleavage
C13A G76C	0.386
U12C G38U	0.0739
C13G G28A	0
C13G G28C	0.0504
C13U C21U	0.0563
C13A C61U	0.185
U12A G68C	0.0755
G11U U60C	0.342
G11U U60A	0.277
C13G C41U	0
U12G C26U	0.776
U12G C26G	1.08
C13G G17C	0.138
G11U G50A	0.415
C13U C24U	0.262
C13A C63G	0.38
C13U C19U	0.0475
C13U C19A	0.138
U12C C13U	0
U12C C13G	0
U12C C13A	0.0665
C13A A77U	0.0739
U12G A42C	0.217
C13G C66G	0.135

Variant	self-cleavage
C13G C66U	0.0692
U12G G34C	0.172
C13G C36G	0.158
U12G G68C	0.914
U12G G68A	0.529
U12C U69A	0.166
U12C A87U	0.396
U12A C49U	0.499
U12A C14G	0.145
U12A C14A	0.0504
G11U C62U	0.403
U12G A78U	0
C13G A45C	0.0639
U12G A83G	0.89
U12C G50C	0.434
G11U G81C	0.126
C13A C49U	0.119
C13A C49G	0.0326
C13G C48U	0.0739
U12A G25A	0.108
C13U C18U	0.295
C13U C18G	0.0332
C13A G80U	0.0654
U12G U37G	0.277

Variant	self-cleavage
U12G U37C	0.692
U12A C15A	0.19
U12A C15G	0
U12G U27C	0.776
U12G U27G	0.639
C13A G52A	0.229
C13A G52C	0.383
U12A C13U	0.0978
C13G A77U	0.119
U12C C26G	0.914
U12C C86A	0.864
G11U U12A	0.116
C13A A56G	0.101
U12A G50A	0.229
U12A G50U	0.767
U12A C33G	0
C13G G40C	0.0396
G11U C64A	0.256
C13G C61U	0.148
U12A A78U	0.128
G11U G74U	0.1
U12G G39U	0.447
C13G G31U	0.0405
G11U U37G	0

Variant	self-cleavage
G11U U37A	0.124
U12G G31A	0.0504
C13A G39U	0.0615
U12A G54C	0.269
G11U C85G	0.689
G11U C85A	0.755
U12G G40U	0.655
C13G A43C	0.262
C13G A43U	0.0923
C13A A87G	0.187
G11U G52U	0.561
U12C A78G	0.192
C13G C24G	0
U12C G81C	0.18
U12G A70G	1.04
U12G G73A	0.323
U12C C66G	0.356
C13G A42U	0.0811
C13A C48U	0.284
C13A G54U	0.188
U12A G31C	0
U12C A56U	0.499
U12C A56C	0.453
C13G G34U	0.136

Variant	self-cleavage
U12A C75A	0.095
U12A C75U	0.0361
U12A C75G	0.277
C13G C21A	0
U12G U23A	0.875
U12A U37C	0.277
U12G G54C	0.831
C13A U20A	0.0811
C13A U20G	0.0594
C13G C30U	0.26
C13G C30G	0.0426
C13G C30A	0.0978
C13U C22G	0.0831
C13U C22A	0.124
U12C G82A	0.0923
U12C G82U	0.104
C13G A78C	0.0811
C13U A42C	0.0831
C13U A42U	0.125
U12C C36U	0.107
G11U G82U	0.138
C13A G31U	0.0604
C13A C32U	0.375
